Test results reported in article PMC3643605 (Nucleic Acids Research, 2013).
Like-named read-outs stand apart in the source and are kept apart here.

B3: C-terminal His6-tagged Neisseria HU protein (natural protein, UniProt P64389 1-89, looked up)
chain: MNKSELIEAIAQEADISKAAAQKALDATTNAVTTALKQGDTVTLVGFGTFYVGERAERQGRNPKTGEPLTIAAAKTPKFRAGKALKDAL

Legend:
[1] = molecular target: B3; test: SEC
HU (C-His6) = molecular target: T1, HU (C-His6) (Neisseria meningitidis, UniProt P64389 1-89); test: ITC
T1 sequence: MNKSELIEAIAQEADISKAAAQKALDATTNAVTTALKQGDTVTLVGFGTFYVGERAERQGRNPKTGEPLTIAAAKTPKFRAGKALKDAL

[2] = molecular target: T2, DMP12 (Neisseria meningitidis conserved hypothetical protein NMB2123), tag-free (N. meningitidis, UniProt Q9JXC6 1-118); test: ITC
T2 sequence (looked up): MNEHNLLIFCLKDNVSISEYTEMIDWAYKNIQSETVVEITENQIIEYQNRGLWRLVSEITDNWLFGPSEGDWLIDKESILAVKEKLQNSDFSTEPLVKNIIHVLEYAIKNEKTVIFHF

[3] = molecular target: T2, DMP12 (Neisseria meningitidis conserved …); test: ITC; remark: listed apart in the source
SEC = molecular target: the molecule itself; test: SEC
AUC = molecular target: the molecule itself; test: AUC

B1: N-terminal His10-tagged DMP12 (natural protein, N. meningitidis, UniProt Q9JXC6 1-118, looked up)
chain: MNEHNLLIFCLKDNVSISEYTEMIDWAYKNIQSETVVEITENQIIEYQNRGLWRLVSEITDNWLFGPSEGDWLIDKESILAVKEKLQNSDFSTEPLVKNIIHVLEYAIKNEKTVIFHF
Question: Which “stoichiometry N” value [1] does the source give for B1 here?
Answer: The value was 1 DMP12 monomer per HU dimer.

B2: 8mer dsDNA (dsDNA)
DNA 1: CTCGCGAG
DNA 2: CTCGCGAG
Question: Which Kd (HU (C-His6)) does the source give for B2 here?
Answer: The Kd was 720 ± 60 nM.

Question: Which Kd [2] does the source give for B3 here?
Answer: The Kd was 2820 ± 430 nM.

Question: What about the dH [2] of the same binder?
Answer: The dH was -6.17 ± 0.55 kcal/mol.

Question: And the “stoichiometry N” value [2]?
Answer: Its value is 0.96 ± 0.01.

Question: And the Kd [3]?
Answer: The Kd was 2810 ± 430 nM.

Question: And the “stoichiometry N” value (SEC)?
Answer: The value was 2.

Question: What about the “stoichiometry N” value (AUC) of the same binder?
Answer: The value was 2.
